In patent US20220396617A1 (BEIJING MABWORKS BIOTECH, published 2022):
Residue numbers refer to the chain shown, from its start. Each block holds one binder with its values, some of them ahead of it.

How the values were obtained:
TIGIT (ECD)-hFc [1] = target: T1, TIGIT (ECD)-hFc (human, UniProt Q495A1 22-141); assay: FACS blocking assay (protocol of Example 7): serially diluted antibody pre-incubated with TIGIT (ECD)-hFc, then binding of TIGIT (ECD)-hFc to A549/human PVR cells measured; blocked ligand: human PVR [A]
T1 construct: bought protein; also called recombinant human TIGIT (ECD)-hFc; Cat #: 10917-H02H, Sino Biological; not shown: human Fc (hFc) of the bought protein
T1 sequence: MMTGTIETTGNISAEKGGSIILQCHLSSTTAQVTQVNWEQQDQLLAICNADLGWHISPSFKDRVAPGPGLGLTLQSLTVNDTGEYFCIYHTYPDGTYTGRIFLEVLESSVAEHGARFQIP

[2] = target: T2, human TIGIT expressed on HEK293A cells (human, UniProt Q495A1 22-244); assay: cell-based or functional assay
T2 sequence: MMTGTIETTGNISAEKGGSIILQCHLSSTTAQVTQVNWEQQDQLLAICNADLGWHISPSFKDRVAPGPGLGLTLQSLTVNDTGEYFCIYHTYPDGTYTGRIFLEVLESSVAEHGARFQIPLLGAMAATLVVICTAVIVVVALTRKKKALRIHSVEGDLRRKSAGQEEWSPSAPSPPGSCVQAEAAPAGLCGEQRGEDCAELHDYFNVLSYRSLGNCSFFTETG

human TIGIT (ECD)-his = target: T3, human TIGIT (ECD)-his (human, UniProt Q495A1 22-141); assay: SPR (BIAcore 8K), human TIGIT (ECD)-his on CM5 chip, antibody injected
T3 construct: bought protein; also called hTIGIT(ECD)-his; Cat #: 10917-H08H, Sino Biological; not shown: his tag of the bought protein
T3 sequence: T1 sequence
Experimental: They were also tested in SPR assays for their binding affinities to human and monkey TIGITs using the BIAcore™ 8K instrument (GE Life Sciences, US). […] The binding affinities were calculated with the RUs of blank controls subtracted. The association rate (kₐ) and dissociation rate (kd) were calculated using the one-to-one Langmuir binding model (BIA Evaluation Software, GE Life Sciences, US). The equilibrium dissociation constant KD was calculated as the kd/kₐ ratio.

TIGIT (ECD)-hFc [3] = target: T1, TIGIT (ECD)-hFc; assay: FACS blocking assay (protocol of Example 7): serially diluted antibody pre-incubated with TIGIT (ECD)-hFc, then binding of TIGIT (ECD)-hFc to A549/human PVR cells measured; blocked ligand: human PVR [B]
[4] = target: T2, human TIGIT expressed on HEK293A cells; assay: FACS, HEK293A/human TIGIT cells, serially diluted antibody (protocol of Example 5) [A]

B1: 70E11-VH3VL3 (antibody, human IgG1, kappa, V domains shown)
VH: QVQLVQSGAEVKKPGASVKVSCKASGYTFTSYNVHWVRQAPGQGLEWIGTIYPGNLATSYNQKFKGRVTLTADKSTSTVYMELSSLRSEDTAVYYCARSGTMDYWGQGTTVTVSS
VL: EIVLTQSPGTLSLSPGERATLSCRASSSISSTYLHWYQQKPGASPKLLIYNTQNLASGIPDRFSGSGSGTSYTLTISRLEPEDFAVYYCQQFGGYPLITFGAGTKLELKR
notes: humanized, human IgG1/kappa
IC50 (read off the curve) (TIGIT (ECD)-hFc [1]): ~4 µg/mL | NK92-mediated ADCC against HEK293A/human TIGIT cells, EC50 [2]: 19.1 pM | Kd (human TIGIT (ECD)-his): 124 pM

B2: 70E11-VH3VL4 (antibody, human IgG1, kappa, V domains shown)
VH: B1 VH
VL: B1 VL with L21M, S22T, I59V, D61A
notes: humanized, human IgG1/kappa
IC50 (read off the curve) (TIGIT (ECD)-hFc [1]): ~4 µg/mL | Kd (human TIGIT (ECD)-his): 50.2 pM

B3: 70E11-VH3VL2 (antibody, human IgG1, kappa, V domains shown)
VH: B1 VH
VL: B1 VL with A43Q, S44A, Y72F
notes: humanized, human IgG1/kappa
IC50 (read off the curve) (TIGIT (ECD)-hFc [1]): ~4 µg/mL

B4: 70E11-VH2VL4 (antibody, human IgG1, kappa, V domains shown)
VH: B1 VH with I48M, K74T
VL: B1 VL with L21M, S22T, I59V, D61A
notes: humanized, human IgG1/kappa; also called 70E11H2L4
IC50 (read off the curve) (TIGIT (ECD)-hFc [1]): ~4 µg/mL | NK92-mediated ADCC against HEK293A/human TIGIT cells, EC50 [2]: 17.2 pM | Kd (human TIGIT (ECD)-his): 430 pM

B6: 70E11-VH5VL2 (antibody, human IgG1, kappa, V domains shown)
VH: B1 VH with R38K, A40T, R67K, V68A
VL: B1 VL with A43Q, S44A, Y72F
notes: humanized, human IgG1/kappa
IC50 (read off the curve) (TIGIT (ECD)-hFc [1]): ~4 µg/mL

B7: 70E11-VH5VL3 (antibody, human IgG1, kappa, V domains shown)
VH: B1 VH with R38K, A40T, R67K, V68A
VL: B1 VL
notes: humanized, human IgG1/kappa; also called 70E11H5L3
IC50 (read off the curve) (TIGIT (ECD)-hFc [1]): ~4 µg/mL | NK92-mediated ADCC against HEK293A/human TIGIT cells, EC50 [2]: 7.14 pM | Kd (human TIGIT (ECD)-his): 250 pM

B8: 70E11-VH1VL1 (antibody, human IgG1, kappa, V domains shown)
VH: B1 VH with I48M, L70M, A72R, K74T
VL: B1 VL with A43Q, S44A, K46R, S71D, Y72F
notes: humanized, human IgG1/kappa
IC50 (read off the curve) (TIGIT (ECD)-hFc [1]): ~4 µg/mL | NK92-mediated ADCC against HEK293A/human TIGIT cells, EC50 [2]: 4.36 pM

B9: 70E11-VH2VL3 (antibody, human IgG1, kappa, V domains shown)
VH: B1 VH with I48M, K74T
VL: B1 VL
notes: humanized, human IgG1/kappa
IC50 (read off the curve) (TIGIT (ECD)-hFc [1]): ~4 µg/mL

B10: 70E11-VH4VL4 (antibody, human IgG1, kappa, V domains shown)
VH: B1 VH with R38K, A40T
VL: B1 VL with L21M, S22T, I59V, D61A
notes: humanized, human IgG1/kappa
IC50 (read off the curve) (TIGIT (ECD)-hFc [1]): ~4 µg/mL

B11: 70E11-VH2VL2 (antibody, human IgG1, kappa, V domains shown)
VH: B1 VH with I48M, K74T
VL: B1 VL with A43Q, S44A, Y72F
notes: humanized, human IgG1/kappa
IC50 (read off the curve) (TIGIT (ECD)-hFc [1]): ~4 µg/mL

B12: 70E11-VH4VL3 (antibody, human IgG1, kappa, V domains shown)
VH: B1 VH with R38K, A40T
VL: B1 VL
notes: humanized, human IgG1/kappa
IC50 (read off the curve) (TIGIT (ECD)-hFc [1]): ~4 µg/mL | NK92-mediated ADCC against HEK293A/human TIGIT cells, EC50 [2]: 7.29 pM

B13: 70E11-VH4VL2 (antibody, human IgG1, kappa, V domains shown)
VH: B1 VH with R38K, A40T
VL: B1 VL with A43Q, S44A, Y72F
notes: humanized, human IgG1/kappa
IC50 (read off the curve) (TIGIT (ECD)-hFc [1]): ~4 µg/mL | NK92-mediated ADCC against HEK293A/human TIGIT cells, EC50 [2]: 9.12 pM

B14: 149G11-VH3VL2 (antibody, human IgG1, kappa, V domains shown)
VH: QVQLVQSGAEVKKPGASVKVSCKASGYTFTNYWIHWVKQAPGQGLEWIGDIYPGGRYSNYNEKFRGRVTLTADTSTSTVYMELSSLTSEDTAVYYCARYYESAMDFWGQGTTVTVSS
VL: DIVMTQSPDSLAVSLGERATINCKSSQNLLYNSNQKSYLAWFQQKPGQPPKLLIYWASTRESGVPDRFSGSGSGTDFTLTISSLQAEDLAVYYCQQYYNYPFTFGAGTKLELKR
notes: humanized, human IgG1/kappa
NK92-mediated ADCC against HEK293A/human TIGIT cells, EC50 [2]: 13 pM | IC50 (read off the curve) (TIGIT (ECD)-hFc [3]): ~2 µg/mL | EC50 (read off the curve) [4]: ~0.2 µg/mL

Results, then the binder that gave them:

IC50 (read off the curve) (TIGIT (ECD)-hFc [1]): ~4 µg/mL
B5: 70E11-VH5VL4 (antibody, human IgG1, kappa, V domains shown)
VH: B1 VH with R38K, A40T, R67K, V68A
VL: B1 VL with L21M, S22T, I59V, D61A
notes: humanized, human IgG1/kappa

IC50 (read off the curve) (TIGIT (ECD)-hFc [3]): ~2 µg/mL | EC50 (read off the curve) [4]: ~0.2 µg/mL
B15: 149G11-VH1VL1 (antibody, human IgG1, kappa, V domains shown)
VH: B14 VH with K38R, I48M, L70M, A72R, T87R
VL: B14 VL with F42Y, L89V
notes: humanized, human IgG1/kappa

NK92-mediated ADCC against HEK293A/human TIGIT cells, EC50 [2]: 17.7 pM | Kd (human TIGIT (ECD)-his): 2.2 pM | IC50 (read off the curve) (TIGIT (ECD)-hFc [3]): ~2 µg/mL | EC50 (read off the curve) [4]: ~0.2 µg/mL
B16: 149G11-VH4VL3 (antibody, human IgG1, kappa, V domains shown)
VH: B14 VH with A40R, Q43H
VL: B14 VL with I21V, P49S
notes: humanized, human IgG1/kappa

NK92-mediated ADCC against HEK293A/human TIGIT cells, EC50 [2]: 14 pM | IC50 (read off the curve) (TIGIT (ECD)-hFc [3]): ~2 µg/mL | EC50 (read off the curve) [4]: ~0.2 µg/mL
B17: 149G11-VH3VL3 (antibody, human IgG1, kappa, V domains shown)
VH: B14 VH
VL: B14 VL with I21V, P49S
notes: humanized, human IgG1/kappa

NK92-mediated ADCC against HEK293A/human TIGIT cells, EC50 [2]: 7.95 pM | Kd (human TIGIT (ECD)-his): 3.29 pM | IC50 (read off the curve) (TIGIT (ECD)-hFc [3]): ~2 µg/mL | EC50 (read off the curve) [4]: ~0.2 µg/mL
B18: 149G11-VH2VL3 (antibody, human IgG1, kappa, V domains shown)
VH: B14 VH with K38R
VL: B14 VL with I21V, P49S
notes: humanized, human IgG1/kappa; also called 149G11H2L3

NK92-mediated ADCC against HEK293A/human TIGIT cells, EC50 [2]: 18.4 pM | Kd (human TIGIT (ECD)-his): 3.09 pM | IC50 (read off the curve) (TIGIT (ECD)-hFc [3]): ~2 µg/mL | EC50 (read off the curve) [4]: ~0.2 µg/mL
B19: 149G11-VH4VL2 (antibody, human IgG1, kappa, V domains shown)
VH: B14 VH with A40R, Q43H
VL: B14 VL
notes: humanized, human IgG1/kappa

NK92-mediated ADCC against HEK293A/human TIGIT cells, EC50 [2]: 16.2 pM | EC50 (read off the curve) [4]: ~0.2 µg/mL
B20: 149G11-VH2VL2 (antibody, human IgG1, kappa, V domains shown)
VH: B14 VH with K38R
VL: B14 VL
notes: humanized, human IgG1/kappa

IC50 (read off the curve) (TIGIT (ECD)-hFc [1]): ~4 µg/mL
B21: Etigilimab (antibody, V domains shown)
VH: QVQLQESGPGLVKPSETLSLTCAVSGYSITSDYAWNWIRQPPGKGLEWIGYISYSGSTSYNPSLRSRVTISRDTSKNQFFLKLSSVTAADTAVYYCARRQVGLGFAYWGQGTLVTVSS
VL: DIQMTQSPSSLSASVGDRVTITCKASQDVSTAVAWYQQKPGKAPKLLIYSASYRYTGVPSRFSGSGSGTDFTFTISSLQPEDIATYYCQQHYSTPWTFGQGTKVEIK
